Assays:
[1] = target: c-Src SH2; assay: SH2 binding enrichment of the phosphorylated peptide, bacterial display (enrichment ratio); higher = better substrate or ligand; peptides without Tyr show the background
[2] = target: Grb2 SH2 (UniProt P62993); assay: as above
[3] = target: SHP2-C SH2; assay: as above
[4] = target: EPHB2 (UniProt P29323); assay: phosphorylation enrichment, bacterial display (enrichment ratio); higher = better substrate or ligand; peptides without Tyr show the background
[5] = target: Hck (UniProt P08631); assay: as above
Chain of Hck (P08631 whole entry, looked up): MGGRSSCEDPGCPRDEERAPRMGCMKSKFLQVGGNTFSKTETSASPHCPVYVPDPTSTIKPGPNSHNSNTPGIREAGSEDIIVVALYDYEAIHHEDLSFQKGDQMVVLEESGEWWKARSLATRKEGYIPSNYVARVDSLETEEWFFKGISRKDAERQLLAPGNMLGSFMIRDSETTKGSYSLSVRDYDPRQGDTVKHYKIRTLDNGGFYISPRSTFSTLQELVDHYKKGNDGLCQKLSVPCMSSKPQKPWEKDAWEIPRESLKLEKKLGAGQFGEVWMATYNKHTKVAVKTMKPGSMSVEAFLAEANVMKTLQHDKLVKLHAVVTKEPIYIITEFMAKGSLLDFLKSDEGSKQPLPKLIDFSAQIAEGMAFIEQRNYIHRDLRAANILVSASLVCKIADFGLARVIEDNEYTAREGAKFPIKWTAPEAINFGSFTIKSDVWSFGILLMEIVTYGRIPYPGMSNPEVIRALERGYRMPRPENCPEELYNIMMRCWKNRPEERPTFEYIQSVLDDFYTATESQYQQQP

[6] = tested on: c-Src; assay: as above
[7] = tested on: Fer (mouse); assay: as above
[8] = tested on: c-Abl (mouse); assay: as above
[9] = target: FGFR1 (UniProt P11362); assay: as above
Chain of FGFR1 (P11362 whole entry, looked up): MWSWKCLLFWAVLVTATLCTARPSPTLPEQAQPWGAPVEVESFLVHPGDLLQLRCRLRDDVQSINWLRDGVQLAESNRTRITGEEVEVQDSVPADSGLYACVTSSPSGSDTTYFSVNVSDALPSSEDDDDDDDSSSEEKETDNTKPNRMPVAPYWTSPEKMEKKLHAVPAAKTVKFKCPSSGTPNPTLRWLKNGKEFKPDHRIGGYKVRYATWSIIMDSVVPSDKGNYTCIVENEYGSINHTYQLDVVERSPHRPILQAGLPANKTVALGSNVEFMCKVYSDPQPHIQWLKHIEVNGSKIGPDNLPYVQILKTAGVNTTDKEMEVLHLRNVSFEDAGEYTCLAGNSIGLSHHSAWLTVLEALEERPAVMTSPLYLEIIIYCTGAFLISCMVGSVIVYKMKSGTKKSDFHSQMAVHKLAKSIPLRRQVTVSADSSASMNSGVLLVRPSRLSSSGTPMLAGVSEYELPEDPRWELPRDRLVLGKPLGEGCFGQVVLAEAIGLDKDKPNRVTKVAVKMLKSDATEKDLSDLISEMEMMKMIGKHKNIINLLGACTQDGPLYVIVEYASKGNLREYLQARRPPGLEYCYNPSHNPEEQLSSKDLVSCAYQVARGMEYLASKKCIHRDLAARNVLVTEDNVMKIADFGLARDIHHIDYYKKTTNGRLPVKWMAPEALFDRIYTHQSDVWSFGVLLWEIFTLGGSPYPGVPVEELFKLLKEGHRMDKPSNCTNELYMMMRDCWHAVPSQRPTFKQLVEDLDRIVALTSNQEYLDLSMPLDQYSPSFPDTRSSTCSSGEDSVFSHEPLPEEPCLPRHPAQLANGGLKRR

[10] = target: FGFR3 (UniProt P22607); assay: as above
[11] = target: Fyn (UniProt P06241); assay: as above
Chain of Fyn (P06241 whole entry, looked up): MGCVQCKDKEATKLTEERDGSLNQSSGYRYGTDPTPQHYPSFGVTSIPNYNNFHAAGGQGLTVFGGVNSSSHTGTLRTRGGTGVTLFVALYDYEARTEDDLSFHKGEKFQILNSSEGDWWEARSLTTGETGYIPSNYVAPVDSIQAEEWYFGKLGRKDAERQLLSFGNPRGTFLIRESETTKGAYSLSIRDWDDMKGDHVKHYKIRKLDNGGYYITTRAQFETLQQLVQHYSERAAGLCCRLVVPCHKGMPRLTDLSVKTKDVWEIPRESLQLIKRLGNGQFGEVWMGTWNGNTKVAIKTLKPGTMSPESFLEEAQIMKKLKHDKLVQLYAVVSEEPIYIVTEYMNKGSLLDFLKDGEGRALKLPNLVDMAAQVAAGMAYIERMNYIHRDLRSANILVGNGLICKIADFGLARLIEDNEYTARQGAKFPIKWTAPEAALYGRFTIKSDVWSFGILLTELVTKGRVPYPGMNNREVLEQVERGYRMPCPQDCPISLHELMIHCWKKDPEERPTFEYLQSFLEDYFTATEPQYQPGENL

[12] = target: Fes (UniProt P07332); assay: as above
[13] = tested on: AncSZ; assay: as above
[14] = target: EPHB1 (UniProt P54762); assay: as above
Chain of EPHB1 (P54762 whole entry, looked up): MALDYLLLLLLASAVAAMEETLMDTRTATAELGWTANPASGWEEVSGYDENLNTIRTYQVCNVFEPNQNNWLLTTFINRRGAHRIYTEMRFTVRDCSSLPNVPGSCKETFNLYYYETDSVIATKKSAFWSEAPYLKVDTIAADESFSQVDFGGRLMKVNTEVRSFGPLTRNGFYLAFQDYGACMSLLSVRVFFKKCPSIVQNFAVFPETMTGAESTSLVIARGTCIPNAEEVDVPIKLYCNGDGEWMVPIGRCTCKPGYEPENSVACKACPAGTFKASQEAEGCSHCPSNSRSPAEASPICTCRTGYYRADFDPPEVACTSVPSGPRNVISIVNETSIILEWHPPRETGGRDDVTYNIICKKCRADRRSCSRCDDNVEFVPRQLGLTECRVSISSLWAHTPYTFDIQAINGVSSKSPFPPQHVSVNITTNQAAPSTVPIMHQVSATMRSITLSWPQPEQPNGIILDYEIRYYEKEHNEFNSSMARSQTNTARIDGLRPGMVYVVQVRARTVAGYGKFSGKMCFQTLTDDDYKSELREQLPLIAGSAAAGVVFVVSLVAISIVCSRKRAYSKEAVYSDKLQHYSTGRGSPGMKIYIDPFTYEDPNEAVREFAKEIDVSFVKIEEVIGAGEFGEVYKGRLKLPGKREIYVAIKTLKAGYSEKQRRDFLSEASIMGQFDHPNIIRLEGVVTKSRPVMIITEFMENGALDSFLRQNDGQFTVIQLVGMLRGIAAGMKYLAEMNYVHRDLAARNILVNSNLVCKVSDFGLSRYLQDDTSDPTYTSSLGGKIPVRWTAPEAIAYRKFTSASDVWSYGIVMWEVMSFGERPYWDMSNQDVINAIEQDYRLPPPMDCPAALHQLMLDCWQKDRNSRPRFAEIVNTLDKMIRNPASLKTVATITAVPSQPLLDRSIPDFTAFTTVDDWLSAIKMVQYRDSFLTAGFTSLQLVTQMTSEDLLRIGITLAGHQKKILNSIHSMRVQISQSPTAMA

[15] = target: Jak2 (UniProt O60674); assay: as above
[16] = target: MERTK (UniProt Q12866); assay: as above
Chain of MERTK (Q12866 whole entry, looked up, the tested form may be a part): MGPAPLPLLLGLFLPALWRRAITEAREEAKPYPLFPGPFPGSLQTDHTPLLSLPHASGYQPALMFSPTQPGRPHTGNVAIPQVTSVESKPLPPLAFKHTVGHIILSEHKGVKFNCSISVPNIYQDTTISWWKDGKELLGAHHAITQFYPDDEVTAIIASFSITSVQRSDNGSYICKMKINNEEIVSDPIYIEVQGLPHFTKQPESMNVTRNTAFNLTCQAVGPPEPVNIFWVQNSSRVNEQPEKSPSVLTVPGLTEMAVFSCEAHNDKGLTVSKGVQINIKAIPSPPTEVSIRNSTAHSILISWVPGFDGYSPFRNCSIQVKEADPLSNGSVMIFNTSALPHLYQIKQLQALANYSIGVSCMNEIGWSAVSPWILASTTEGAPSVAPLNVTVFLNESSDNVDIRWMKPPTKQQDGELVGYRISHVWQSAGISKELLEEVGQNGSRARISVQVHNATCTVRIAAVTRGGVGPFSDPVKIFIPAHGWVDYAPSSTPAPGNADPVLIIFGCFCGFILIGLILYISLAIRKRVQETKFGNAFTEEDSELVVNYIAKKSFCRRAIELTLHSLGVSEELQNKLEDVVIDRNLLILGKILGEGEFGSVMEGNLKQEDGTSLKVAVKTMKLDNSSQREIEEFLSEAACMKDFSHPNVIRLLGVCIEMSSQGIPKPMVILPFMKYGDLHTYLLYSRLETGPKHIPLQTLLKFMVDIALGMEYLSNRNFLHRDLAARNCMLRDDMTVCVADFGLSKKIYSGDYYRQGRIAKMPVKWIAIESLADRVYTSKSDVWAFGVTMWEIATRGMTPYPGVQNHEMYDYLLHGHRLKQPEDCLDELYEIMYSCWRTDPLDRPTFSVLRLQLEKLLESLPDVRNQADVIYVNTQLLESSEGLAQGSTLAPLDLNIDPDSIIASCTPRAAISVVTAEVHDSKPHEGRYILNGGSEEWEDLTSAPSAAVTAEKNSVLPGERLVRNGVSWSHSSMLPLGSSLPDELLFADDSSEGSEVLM
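Throughout, for SH2 binding enrichment of the phosphorylated peptide, bacterial display: peptide library displayed on the E. coli surface as eCPX fusions, selected cells deep-sequenced, score is each peptide's frequency after selection divided by its frequency in the input.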
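Throughout, for phosphorylation enrichment, bacterial display: 11-residue human phosphosite peptides and single-mutation variants displayed on the E. coli surface, counted by deep sequencing, each peptide's frequency after selection divided by its frequency in the unselected input library; frequency after pTyr selection over input frequency; kinase dosed for 20-30% of maximal phosphorylation in three min.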

Chain of EPHB2 (P29323 whole entry, looked up): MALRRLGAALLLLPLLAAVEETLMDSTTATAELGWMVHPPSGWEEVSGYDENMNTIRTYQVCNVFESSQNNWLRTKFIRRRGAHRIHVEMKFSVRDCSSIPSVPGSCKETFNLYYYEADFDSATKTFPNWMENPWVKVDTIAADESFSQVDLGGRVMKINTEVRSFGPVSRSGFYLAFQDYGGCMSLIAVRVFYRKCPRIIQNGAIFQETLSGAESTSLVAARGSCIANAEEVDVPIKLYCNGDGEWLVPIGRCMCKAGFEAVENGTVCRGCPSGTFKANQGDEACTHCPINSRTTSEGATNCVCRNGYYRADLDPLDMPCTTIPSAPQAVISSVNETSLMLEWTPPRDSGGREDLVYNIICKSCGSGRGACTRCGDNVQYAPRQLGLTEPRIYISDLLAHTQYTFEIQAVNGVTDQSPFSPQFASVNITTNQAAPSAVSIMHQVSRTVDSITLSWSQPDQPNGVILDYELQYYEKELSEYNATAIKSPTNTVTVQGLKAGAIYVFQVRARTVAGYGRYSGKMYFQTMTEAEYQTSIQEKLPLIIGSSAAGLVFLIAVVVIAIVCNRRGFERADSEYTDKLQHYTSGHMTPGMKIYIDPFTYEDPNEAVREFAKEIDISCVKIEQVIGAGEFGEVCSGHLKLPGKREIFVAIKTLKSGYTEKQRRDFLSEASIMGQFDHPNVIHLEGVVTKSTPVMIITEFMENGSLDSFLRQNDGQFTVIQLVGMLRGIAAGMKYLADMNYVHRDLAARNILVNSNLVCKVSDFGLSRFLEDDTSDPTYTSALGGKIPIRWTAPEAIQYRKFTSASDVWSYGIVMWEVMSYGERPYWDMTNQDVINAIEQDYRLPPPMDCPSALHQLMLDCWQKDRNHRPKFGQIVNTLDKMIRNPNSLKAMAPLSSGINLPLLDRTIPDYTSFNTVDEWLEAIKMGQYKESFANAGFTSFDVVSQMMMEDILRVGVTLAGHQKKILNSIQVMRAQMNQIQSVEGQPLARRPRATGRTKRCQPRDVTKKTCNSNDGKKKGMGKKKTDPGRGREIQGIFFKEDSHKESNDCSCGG

Sequence | SH2 binding enrichment [1] | SH2 binding enrichment [2] | SH2 binding enrichment [3] | phosphorylation enrichment [4] | phosphorylation enrichment [5] | phosphorylation enrichment [6] | phosphorylation enrichment [7] | phosphorylation enrichment [8] | phosphorylation enrichment [9] | phosphorylation enrichment [10] | phosphorylation enrichment [11] | phosphorylation enrichment [12] | phosphorylation enrichment [13] | phosphorylation enrichment [14] | phosphorylation enrichment [15] | phosphorylation enrichment [16]
IHTEFYDGLFP [BCR_Y561_K558T] | 0.63 | 0.82 | 0.459 | 0.828 | 3.83 | 1.24 | 1.65 | 0.902 | 0.683 | 0.813 | 1.06 | 1.34 | 1.47 | 0.739 | 0.993 | 1.02
SKNSKCNAEST [PSEN1_Y315_Y315C] | 0.546 | 0.913 | 0.754 | 0.463 | 0.499 | 0.383 | 0.508 | 0.566 | 0.769 | 0.486 | 0.379 | 0.768 | 0.546 | 0.48 | 0.51 | 0.368
QEKKGYFEDRC [GLUL_Y336_R341C] | 0.589 | 1.5 | 0.948 | 0.631 | 0.655 | 0.613 | 0.519 | 0.843 | 0.804 | 0.716 | 0.609 | 1.29 | 1.06 | 0.522 | 1 | 0.799
EFRFIYMAVQH [PTPN11_Y515_Q510E_YF] | 0.596 | 0.912 | 0.86 | 0.737 | 1.63 | 2.05 | 1.01 | 1.16 | 0.555 | 0.864 | 1.42 | 1.35 | 1.31 | 0.881 | 1.18 | 0.519
AIKSFYAALID [RYR1_Y2426_M2423K] | 1.67 | 1.08 | 1.5 | 1.23 | 0.758 | 0.481 | 0.479 | 0.719 | 0.553 | 0.628 | 0.504 | 0.981 | 0.882 | 1.25 | 0.667 | 2.53
ILGRFYETGSI [PAX2_Y73_YF] | 1.17 | 0.85 | 1.17 | 0.515 | 0.451 | 0.414 | 0.4 | 0.52 | 0.423 | 0.578 | 0.5 | 0.779 | 0.737 | 0.489 | 0.566 | 0.428
NSRYTYKLEVK [USH2A_Y3747] | 0.644 | 0.962 | 0.911 | 0.689 | 0.478 | 0.42 | 0.505 | 0.795 | 0.427 | 0.687 | 0.437 | 1.29 | 1.12 | 0.618 | 0.982 | 0.396
KNKELYSDLFD [PDE10A_Y300] | 1.15 | 1.04 | 0.715 | 0.794 | 0.958 | 0.6 | 1.84 | 0.918 | 0.556 | 0.66 | 0.68 | 1.14 | 1.13 | 1.03 | 0.898 | 1.35
ISIFRYAKGQP [MPZ_Y82_H81R] | 0.596 | 0.843 | 0.534 | 0.577 | 0.402 | 0.404 | 0.414 | 0.574 | 0.486 | 0.685 | 0.464 | 0.937 | 0.791 | 0.461 | 0.969 | 0.49
QTLTDYDTRFY [CSNK2A3_Y131_I133T] | 0.678 | 0.815 | 0.757 | 0.667 | 0.619 | 0.428 | 0.749 | 0.692 | 0.612 | 0.69 | 0.556 | 1.25 | 1.01 | 0.861 | 1.06 | 0.483
GGRIDYIAGLV [APRT_Y60_D65V] | 0.382 | 0.692 | 0.582 | 0.604 | 0.568 | 0.423 | 0.715 | 0.573 | 0.496 | 0.717 | 0.418 | 1.11 | 1.19 | 0.562 | 0.871 | 0.389
GRQWNYVASMS [KLHL4_Y552] | 0.767 | 1.04 | 0.966 | 0.549 | 0.4 | 0.371 | 0.355 | 0.719 | 0.434 | 0.539 | 0.419 | 0.754 | 0.799 | 0.508 | 0.618 | 0.395
TLPAFYMENFS [GLB1_Y552_G554E] | 0.484 | 0.853 | 0.638 | 0.789 | 0.523 | 0.735 | 0.64 | 1.2 | 0.439 | 0.855 | 0.484 | 1.62 | 1.19 | 1.25 | 1.37 | 0.947
SLLPDYEDEEE [ZNF830_Y159] | 0.601 | 0.942 | 0.776 | 0.829 | 0.673 | 0.556 | 0.64 | 0.647 | 0.583 | 0.782 | 0.646 | 1.28 | 1.47 | 0.744 | 1.01 | 0.631
SIKDKYVTAVY [KCNH2_Y611_L615V] | 0.48 | 0.808 | 0.664 | 0.423 | 0.552 | 0.49 | 0.431 | 0.441 | 0.498 | 0.638 | 0.545 | 0.705 | 0.565 | 0.446 | 0.585 | 0.443
FADIAYNFRDG [PAH_Y166_H170D_YF] | 0.424 | 0.953 | 0.58 | 0.476 | 0.464 | 0.583 | 0.473 | 0.551 | 0.41 | 0.613 | 0.534 | 0.892 | 0.695 | 0.446 | 0.654 | 0.47
KANEFYPVVLI [ADAMTS18_Y765_YF] | 0.388 | 0.663 | 0.421 | 0.48 | 0.412 | 0.506 | 0.82 | 0.68 | 2.76 | 1.97 | 0.482 | 1.15 | 1.03 | 0.448 | 1.06 | 0.451

Sequence | SH2 binding enrichment [1] | SH2 binding enrichment [2] | SH2 binding enrichment [3] | phosphorylation enrichment [4] | phosphorylation enrichment [5] | phosphorylation enrichment [6] | phosphorylation enrichment [7] | phosphorylation enrichment [8] | phosphorylation enrichment [9] | phosphorylation enrichment [10] | phosphorylation enrichment [11] | phosphorylation enrichment [12] | phosphorylation enrichment [13] | phosphorylation enrichment [14] | phosphorylation enrichment [15] | phosphorylation enrichment [16]
QTPVLYAMLFH [MPZ_Y220_D224Y_YF] | 0.601 | 1.03 | 0.778 | 4.17 | 5.5 | 4.04 | 6.25 | 1.61 | 2.41 | 2.13 | 4.56 | 1.23 | 0.771 | 6.9 | 1.39 | 7.73
PAVGIYNGNIN [CDCP1_Y707_D709G] | 0.44 | 0.696 | 0.708 | 0.652 | 1.55 | 1.64 | 0.588 | 1.08 | 0.396 | 0.884 | 1.49 | 1.15 | 0.67 | 0.605 | 1.15 | 0.574
VQEDIYDEFVV [ALDH2_Y332_E337V] | 0.495 | 0.824 | 0.822 | 0.827 | 2.81 | 3.57 | 5.77 | 1.75 | 0.599 | 0.886 | 3.96 | 1.25 | 1.55 | 0.676 | 1.37 | 3.17
GRQWNYVASML [KLHL4_Y552_S557L] | 0.945 | 1.25 | 1.33 | 0.481 | 0.418 | 0.391 | 0.366 | 0.591 | 0.382 | 0.565 | 0.434 | 0.809 | 0.731 | 0.405 | 0.737 | 0.367
HVKHNYECLVF [XRCC5_Y416_I412V_YF] | 3.99 | 1.13 | 0.632 | 1.16 | 0.581 | 0.754 | 1.09 | 1.23 | 0.558 | 0.928 | 0.584 | 1.17 | 1.23 | 1.36 | 1.71 | 0.948
GGGMIYPLDLF | 0.556 | 0.959 | 0.562 | 0.496 | 0.551 | 0.515 | 0.534 | 0.804 | 0.503 | 0.637 | 0.6 | 1.02 | 0.913 | 0.527 | 0.941 | 0.688
SFPSFYTSHVQ [NEFL_Y443_YF] | 0.47 | 0.889 | 1.1 | 0.584 | 0.548 | 0.509 | 0.509 | 0.498 | 0.5 | 0.609 | 0.563 | 0.857 | 0.874 | 0.677 | 0.657 | 1.23
ELCSEYRKSRK [SPINK5_Y440] | 0.484 | 1.03 | 0.726 | 0.489 | 0.412 | 0.375 | 0.457 | 0.555 | 0.429 | 0.394 | 0.378 | 0.803 | 0.562 | 0.425 | 0.474 | 0.443
IPGGIYNADLN [CST4_Y35_D36N] | 0.635 | 0.943 | 0.646 | 0.366 | 1.27 | 1.36 | 0.472 | 0.654 | 0.542 | 0.516 | 1.27 | 0.95 | 0.748 | 0.514 | 0.746 | 0.443
NLNGKCNKPRA [ANGPTL3_Y417_Y417C] | 0.496 | 1.23 | 1.24 | 0.41 | 0.347 | 0.393 | 0.64 | 0.388 | 0.39 | 0.446 | 0.422 | 0.558 | 0.596 | 0.322 | 0.435 | 0.44
GLIPAYHRFIM [NMNAT1_Y64_V67F] | 1.44 | 1.39 | 1.37 | 0.423 | 0.494 | 0.616 | 0.418 | 0.619 | 0.553 | 0.687 | 0.535 | 0.822 | 0.734 | 0.521 | 1.31 | 0.593
VFSSDYFSFVL [USP24_Y2138_YF] | 0.428 | 0.885 | 0.764 | 1.03 | 1.24 | 4.09 | 0.681 | 1.93 | 8.46 | 6.6 | 2.61 | 1.34 | 2.28 | 1.73 | 4.95 | 1.65
DDEVFYSPRSL [OTC_Y317] | 0.47 | 0.774 | 0.647 | 0.597 | 2 | 0.87 | 1.57 | 1.22 | 0.504 | 0.847 | 0.574 | 1.36 | 1.67 | 0.597 | 1.36 | 0.592
KMMGRYEMFAR [UPB1_Y362_T359M_YF] | 1.65 | 1.12 | 0.973 | 0.393 | 0.402 | 0.34 | 0.298 | 0.464 | 0.363 | 0.445 | 0.368 | 0.599 | 0.538 | 0.327 | 0.453 | 0.393
IDGLEYLHSQS [STK11_Y166_G171S] | 0.413 | 0.768 | 0.622 | 0.549 | 0.604 | 0.357 | 0.476 | 0.616 | 0.457 | 0.597 | 0.465 | 1.07 | 0.953 | 0.503 | 0.831 | 0.325
VKYLGYPPPEI [KDR_Y357_A352V] | 0.495 | 0.896 | 1.84 | 0.491 | 0.451 | 0.403 | 0.37 | 0.796 | 0.666 | 0.626 | 0.486 | 0.719 | 0.7 | 0.468 | 0.489 | 0.427
